Results reported in the nanobody polyreactivity screen of Harvey et al. (2022).

Assay: yeast display, Sf9 membrane polyspecificity reagent, FACS + sequencing; frameworks hold sequencing errors
Procedure, shortened: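 Genes from sorted yeast were amplified by colony PCR, read by MiSeq 2 × 250 sequencing and filtered on CDR length. These cells carried a synthetic nanobody library in Saccharomyces cerevisiae BJ5465 and were sorted by FACS into low and high (top ~1%) gates on anti-HA and streptavidin fluorescence. Polyreactivity is labelled according to the gate of origin.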

Sequence | polyreactivity (PSR sort gate)
QVQLVESGGGLVQAGGSLRLSCAASGSIFRRYAMGWYRQAPGKERELVAGITRGGSTYYADSVKGRFTISRDNAKNTVYLQMNSLKPEDTAVYYCNAVRRGLPVVGAYDYWGQGTQVTVSS | high polyreactivity
QVQLVESGGGLVQAGGSLRLSCAASGSTFSSNAMGWYRQAPGKERELVAAINRTGNTYYADSVKGRFTISRDNAKNTVYLQMNSLKPEDTAVYYRNTVLNLYRGGGYWGQGTQVTVSS | low polyreactivity
QVQLVESGGGLVQEGGSLRLSCAASGRIFNTNAMGWSRQAPGKERELVAGITDSGDSTYDADSVKGRFTISRDNAKNTVYLQMYSLKPEDTGVYYCATDPASPYIYDYWGQGTQVTVSS | low polyreactivity
QVQLVESGGGLVQAGGSLRLSCAASGNTFRIYTMGWYRQAPGKERELVATITRRGGSTYYADSVKGRFTISRDNAKNTVYLQMNSLKPEDTAVYYCAARVRGTGVYGGYNYWGQGTQVTVSS | high polyreactivity
QVQLLESGGGLVQAGGSLRLSCAASGRNFSRYAMGWYRQAPGKERELVAGITRSGTTTYYADSVKGRFTISRDNAKNTVYLQMNSLKPEDTAVYYCAAPPIRPNLYDYWGQGTQVTVSS | high polyreactivity
QVQLVESGGGLVQAGGSLRLSCAASGSIFADYAMGWYRQAPGKERELVAVITSSGGSTNYADSVKGRFTISRDNAKNTVYLQMNSLKPEDTAVYYCNRRPYPSYDYWGQGTQVTVSS | low polyreactivity
QVQLEESGGGLVQAGGSLRLSCAASGAIFYAYAMGCYRQATGKEREFVAAITRRGGNTYYADSVKGRFTISRDNAKNTVYVQMNSLKPEDTEVYYSAADAGGGTFDYWGHGTQVTVSS | low polyreactivity
QDQLVESGGGLVQAGGRLRLSCAASGYIFAYNAMGRDRQAPGKERELVAAISYSGGRTYYAYSVKGRFTISRYIAKNTVYLQMKSLKPEVTAVYYCAAPFRVGAGPATYDYWGQGTQVTVSS | high polyreactivity
QVQLVESGGGLVQAGGSLRLSCAATGFIFPYYAMGLYRQAPGKEREMVAAITFSATRTYYADSVKGRFTISRDNAKNTVYLQMNSLKPEDTAVYYCNARGGVYGSYFEFNYWGQGTQVTVSS | low polyreactivity
QVQLVESGGGLVQAGGSLRLSCAASGRTFRPYAMGWYRQAPGKERELVAAIDSSGTSTYYADSVKGRFTISRDNAKNTVYLQMNSLKPEDTAVYYCNTSLKRRRLRFNYWGQGTQVTVSS | low polyreactivity
QVQLVESGGGLVQAGGSLRLSCAASGSIYGTNAMGWYRQAPGKERELVSAIDGGSTTYYADSVKGRFTISRDNAKNTVYLQMNSLKPEDTAVYYCAADGTRYLNYEGYAGYEYWGQGTQVTVSS | low polyreactivity
QVQLVESGGGLVQAGGSLRLSCAASGFIFSRYAMGWYRQAPGKERELVAAISGRGTSTYYADSVKGRFTISRDNAKNTVYLQMNSLKPEDTAVYYCNTYSQPKWGTSDYDYWGQGTQVTVSS | high polyreactivity
QVQLVESGGGLVQAGGSLRLSCAASGFIFWDYAMGWYRQAPGKEREFVATISLSVGSTYYADSVKGRFTISRDNAKNTVYLQMNSLKPEDTAVYYCAAVTWGEGFDYWGQGTQVTVSS | low polyreactivity
QVQLVESGGGLVQAGGSLRLSCAASGSTISPNAMGWYRQAPGKERELVPAITWSGGSNTYADSVKGRFTISRDNAKNTVYLQMNSLKPEDTAVYYCATVGYLYTPVVVTWWDWGDYWGQGTQVTVSS | low polyreactivity
QDQLVESGGGLVQAGGSLRLSCAASCFTSLIYAMGWYRQAPGKERELVASITWGGGSTYADSVKGRFTISRDNAKNTVSLLMNSLKPEDTAVYYCASLYWWYPFNYWGQGTQVTVSS | low polyreactivity
QVQRVESGGGLVQAGGSLRLSCAASGSIFEPYAMGCYRQAPGKESELVATAITYSGGSTYYADSVKGRFTISRDNAKNTVYLQMNSLKPEDTAVYYCAADDLGDGVYKLDYWGLGTQVTVSS | low polyreactivity
QVQLVESGGGLVHAGGSLRLSCAASGFTFYYYAMGWYRPAPGKERELVAAISSRGGNSYYADSVKGRFTISRDNAKNTVYLQMNSLKPEDTAVYYCASVPLKYDYWGQGTQVTVSS | high polyreactivity
QVQLVESGGGLVQAGRSLRLSCAASGFIFRWYAMGWYRQAPGKERELVAGLTSGDNTYYADSVKGRFTISRDNAKNTVYLQMNSLKPEDTAVSYCAADGWLWSFTGDGWWFDYWGQGTQVTVSS | low polyreactivity
QVQLVESGGGLVQAGASLRLSCPPSGFIFSLYAMGWYSQAPGKERELVADISWGDGTTYYADSVKGRFTISRDNAKNTVYLQMNSLKPEDTAVYYCAADSVSNWYWFNYWGQGTQVTVSS | high polyreactivity
QVQLVESGGGLVQAGGSLRLSCAASGSIFRYNAMGWYRQAPGKERELVAGISWSGGSTYYADSVKGRFTISRDNAKNTVYLQMNSLKPEDTAVYYCATRVGRYWTAGYYWGQGTQVTVSS | high polyreactivity
QVQLVESGGGLVQAGGSLRLSCAASGSTLIWNVMGWYRQAPGKERELVATISSGGRTYYADSVKGRFTISRDNAKNTVYLQMNSLKPEDTAVYYCAARSRRGVSYRSYRSFDYWGQGTQVTVSS | high polyreactivity
QVQLVESGGGLVQAGGSLRLSCAASGSTFGPYAMGWYRQAPGKERELVADITVSDGSTYYADSVKGRFTISRDNAKNTVYLQMNSLKPEHTAVYYCAAEIYYSFGYWGQGTQVTVSS | low polyreactivity

Sequence | polyreactivity (PSR sort gate)
QVQLVESGGGLVQAGGSLRLSCAASGRIFDGNAMGWYRQAPGKERELVATITRGGRTNYADSVKGRFTISRDNAKNTVYLQMNTLKPEDTAVYYCATSYPGYAYNQAWYPYGYWGQGTQVTVSS | low polyreactivity
QVQLVESGGGLVQAGGSLRLSCAASGITGHNAMGWYRQAPGKERELVARISSGGRTNYADSVKGRFTISRDNAKNTVYLKMNSLKPEDTAVYYCAAGFRVGSFLRYNYWGQGTKVTVSS | high polyreactivity
QVQLVESGGGLVQAGGSLRLSCAASGSIFRRYAMGWYRQAPGKERELVAGITRGGSTYYADSVKGRFTISRDNAKNTVYLQMNSLKPEDTAVYYCNRAARYGEYDYWGQGTQVTVSS | high polyreactivity
QVQLVESGGGLVQAGGSLRLSCAASGFIFPANAMGWSRQAPGKEREFVAAISRSGGTTYYADSVKGRFTISRDHAKNTVYLQMNSLKPEDTAVYYCAARYAIGPGYDYWGQGTQVTVSS | high polyreactivity
QVQLVESGGGLVQAAGSLRLSCAASGGTFWFYDMGWYRQAPGKERELVAAINSDGSTYYADSVKGRFTISRDNAKNTVYLQMNSLKPEDTAVYYCAVDQTYVGEGLSEVDVGYWGQGTQVTVSS | low polyreactivity
QVQLVESGGGLVQAGGSLRLSCAASGSTFLDNAMGWYRQAPGKERELVAAITQSGSSTYYADSVKGRFTISRDNAKNTVYLQMNSLKPEDTAVYYCAADVPNISFDYWGQGTQVTVSS | low polyreactivity
QVQLVESGGGLVQAGGSLRLSCAASGSIFPYNAMGWYRQAPGKERELVATISSGGSTNYADSVKGRFTISRDNAKNTVYLQMKSLKPADTAVYYCAADVIVFFSAPNYWGDIEYGYWGQGTQVTVSS | low polyreactivity
QVQLVESGGGLVQAGGSLRLSCAASGGIITYYDMGWYSQAPGKDREFVAAINVSGTRTYYADSVKGRFTISRDNAKNTVYLEMNSLKPEDTAVYYGATRYRVGFFSWYDYWGQGTQVTVSS | high polyreactivity
QVQLVESGGGIVQAGGSLRLSCDASGNTFKGYAMGWYRQAPGTESELVAAISWSGSSTYYADSLKGRFTISRDNAKNTVYFQLNSLKQEDPAVFSCNRKYLGRYASVYGYGYWGQGTQVTVSS | high polyreactivity
QVQLVESGGGLVQAGGSLRLSCAASGSTFVKNAMGWYRQAPGKERELVAAISYRGGRTYYADSVKGRYTISRDNAKNTVYLQMNSLKPEDTAVYYCNARYRTPSFIRMGYWGQGTQVTVSS | high polyreactivity
QVQLVESGVGLVQAGGSLRLSCAASGRIFTLNAMGWYRQAPGKERELFAGISRTGGSTYYADSVKVRFPISRDNAKNTVYLQMNSLKPEDTAVYYCAAAGFRRQPGAGAYYYWGQGTQVTVSS | high polyreactivity
QVQLVESGGGLVQAGGSHRLSCAASGSIFKDNAMGWYRQAPGKERELVAAITSGASTNYADSVKGRFTMSRDNAKNTVYLQMNSLKPEDTAVYYCAAGTRPTRFVGTKYDYWGQGTQVTVSS | low polyreactivity
QVQLVESGGGLVQAGGSLRLSCAASGSTFVNYGMGWYRQAPGKERELVAAITQSGGSTYYADSVKGRFTISRDNAKNTVYLQMNSLKPEDTAVYYCAAEVVRQWHGIGYDYWGQGTQVTVSS | low polyreactivity
QVQLVESGGGLVQAGGSLRLSCAASGSTFYTYTMGWYRQAPGKERELVAAISSSGGDTYYADSVKGRFTISRDNAKNTVYLQMNSLKPEDTAVYYCAALGAFPSLEFDYWGQGTQVTVSS | low polyreactivity
QFQLVESGGGLVQAGGSLRLSCAASGSIFVPYAMGWYRQAPGKERELVAAISSSTASTYYADSVKGRFTISRDNAKNTVYLQMNSLKPEDTAVYYCNAEQWDYGVRVAHYDYWGQGTQVTVSS | low polyreactivity
QFQLLESGGGLVHAGGSLLLSCAASGSTFVRYAMGWYRQAPAKERELVASISSSGSTYYADSVKGRFTISRDNAKNSDYLQMNSLKPEDTSVYYCAIQYGGRYGYWGQGTQVTVSS | low polyreactivity
QVQLQESGGGLVLAGGSLRLSCSASGNIYVYGYKGWYRQAPRKEREFVATIDPGTNTNYADSVKDRFSISRDNAKNSVYLQMKSLKPEDNAVYYCAVEAGSDWPYRYWGLGTQVTVSS | low polyreactivity
QDQLVESGGGLVQAGASLRLSCADSGFTFTTNAMGWYRHAPGKERELVAAISFSGGTTYYADSVKGRFTISRDNAKNTVYLQMNRLKPEDTAVYYCAAQPGQAWWSTDHDDYWGQGTQVTVSS | low polyreactivity
QVHLVESGGGLVQAGGSLRLSCAASGRIFYGYVMGWYRQAPGTEREFVAAITWSAGSTYYADSVKGRFTISRDNAKNTVYLQMNSLKPEDTALYYCADGGGHYQEYLMEDYWGQGTQVTVSS | high polyreactivity
QVQLVESGGGLVQAGGSLRLSCAASGSIFRGYAMGWYRPAPGKERELVAAISWSAGSTYYADSVKGRFTISRDNAKNTVYLQMNSLKPEDTAVYYCAARSPRRKGMDYWGQGTQVTVSS | high polyreactivity
QVQLVESGGGLVQAGGSLRLSCAASGFTFSWYAMGWYRQAPGKERELVAAISRRGGSTYYADSVKGRFTISRDIAKNTVYLQMNSLKPEDTAVYYCNAALTYDYNYWGQGTQVTVSS | high polyreactivity
